± gives the half width of the 95% confidence interval.
What was measured:
[1] = folding stability dG unfold from trypsin proteolysis; higher = more stable
In short: (§1)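 Unfolding free energy was derived, per protease or combined, by relating Bayesian-fitted K50 values from sequencing counts to a sequence-predicted unfolded-state K50 and a shared folded-state K50. The underlying digests exposed cysteine-free mini-proteins under 80 residues, in a PA-tagged cDNA display construct, to trypsin and chymotrypsin at 11 threefold-diluted concentrations and to a no-protease condition. A filter kept only designs with AlphaFold2 dimer inter-PAE above 15.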

[2] = folding stability dG unfold from chymotrypsin proteolysis; higher = more stable
In short: as §1

[3] = folding stability dG unfold (combined trypsin and chymotrypsin); higher = more stable
In short: as §1

Row | Sequence | folding stability dG unfold [1] [kcal/mol] | folding stability dG unfold [2] [kcal/mol] | folding stability dG unfold [3] [kcal/mol]
1 | SAGPWITIPFKVKSLEEARNIIREIAQTFGLPMKVEDIQVTEDQLEKNREPGDPIRITVRYPNGREIEISAG [r5_503_TrROS] | 1.64 ± 0.065 | 1.69 ± 0.11 | 1.64 ± 0.11
2 | SAGQPGKPIRKYTFDLPDDDKITVEVYMYPDGNMMIKIEDNNGKERNIMIPANDLQNMPIEDLVKWLRSAGG [r19_47_TrROS] | 2.73 ± 0.12 | 3.57 ± 0.062 | 3.33 ± 0.36
3 | SAGSAEELKEKIREELRERLAKELGYPNIEIKKVEVLKYDPETGTITVKVELKLPDGKELTLTITVPVKSAG [r5_20_JUSTAS] | 4.27 ± 0.34 | 3.63 ± 0.29 | 3.9 ± 0.41
4 | SAGSASSIKPISSTLDVRTDPETGKPVKATVYTYVLPSDGSSKQVPVPLSKKEPINLSPSDSYVTETRESAG [r5_950_JUSTAS] | -0.586 ± 0.17 | -0.274 ± 0.27 | -0.361 ± 0.22
5 | SAGSGPGETKLVEEVEIDPVGPIKDSNGNPRPIKVVTKKLVEVTILEDGTVEKKVLETVVETLPPDVPLSAG [r5_132_JUSTAS] | -0.498 ± 0.23 | -0.575 ± 0.1 | -0.662 ± 0.51
6 | SAGSGVILRTPEGKYVPLSALSEEEIKTAIEDPLSPAPPVTVEVTVTSVRLPVPRTVTTTEVVVTVLGSAGG [r19_232_JUSTAS] | -0.00526 ± 0.21 | 0.233 ± 0.19 | 0.115 ± 0.19
7 | SAGSIEAAVEALEKELREKGYKVSVELVETDPSDPNRLNLVIRVTVEGFSPESKPLGKKEETYVIEGGSAGG [r19_418_JUSTAS] | 1.12 ± 0.031 | 1.45 ± 0.069 | 1.28 ± 0.14
8 | SAGSIPELIREAFPSKVDRVEVTTEKLPNGTTKTTIKVYVDDPEVAERLAKEINELSGEPLENLTVTEESAG [r5_542_JUSTAS] | 0.0676 ± 0.11 | 0.981 ± 0.039 | 0.652 ± 0.13
9 | SAGSITIPIDDPEEMKDQLKNIAENFGMSNQDAEQFKDQLKENIEIHRDGDRWYITIQPPPPPDPGQPPSAG [r5_717_TrROS] | 0.51 ± 0.15 | -0.145 ± 0.55 | -0.121 ± 0.47
10 | SAGSITITIETLPDGTIRITIPYTSEEEAKKVAEEVAKEIAEKLGEEVIKFEVTPEDDDTLILTIPIKKSAG [r5_772_JUSTAS] | 1.15 ± 0.15 | 1.81 ± 0.092 | 1.78 ± 0.28
11 | SAGSITTTDGNISRSVTYIPGLNLYLVTSTYPTSVSVDLVTEEGGTLTTTPVSTTPLPLPASSLSTTASAGG [r19_328_JUSTAS] | 0.207 ± 0.059 | -0.16 ± 0.15 | 0.0781 ± 0.091
12 | SAGSKEEKAKEIAKKLAEELKKKFPDLKIVEVKVVKIEYNKENKEIKITIYVYNKNGKLIKKIEITLPSAGG [r19_53_TrROS_Hall] | 3.58 ± 0.2 | 4.63 ± 0.11 | 4.38 ± 0.18
13 | SAGSKELVIVEKDEPVEGETLDYTNGKKKKFPKKVPVVKEIVLPKNSPEAEKIAKELSPPNVKVEILAKSAG [r5_468_JUSTAS] | -1.08 ± 0.81 | -0.322 ± 0.11 | -0.617 ± 0.32
14 | SAGSMEALRALAEELAAEIAAAARAAGREVEVDITEVRPGEVRIRVTTTPPGGERTVEDIEIALPEERLSAG [r5_994_JUSTAS] | 0.934 ± 0.018 | 1.82 ± 0.026 | 1.48 ± 0.034
15 | SAGSMEPGEVLNVTMTFYDTSGNKLGTVNFTFTDEEEAKKKIEELAKEIKEKLNKNVKVTVEINKSPSLSAG [r5_232_JUSTAS] | 3.5 ± 0.25 | 4.59 ± 0.23 | 4.76 ± 0.78
16 | SAGSMLSVEEVEVTYNNPETGTPATIKLTVPVFYDPVTGRVEVEVEVEPSPEVPEEVAKEIAEKVKEKRSAG [r14_152_JUSTAS] | -1.26 ± 0.95 | 0.494 ± 0.066 | -0.0138 ± 0.35
17 | SAGSMSFELTVDYEKLPDGTYRVRATITIYDPNNNNPLKTVDFEGEATSEEEAEARARARAEEVKEAASAGG [r19_255_JUSTAS] | 1.84 ± 0.078 | 2.942 ± 0.023 | 2.69 ± 0.17
18 | SAGSMVLTEDKEFEVDYVLPDGTRLTEPVKVKVKTTTVFLKNNSSLVLTFTTVTLTDPKGNKVTFSGSVSAG [r5_257_JUSTAS] | 2.31 ± 0.074 | 2.969 ± 0.018 | 2.7 ± 0.1
19 | SAGSPLTLSEKTSYDPSTGVTTRTFTFPDGTTRTTATVTVPGTGTLLTSTDFTQSPGTLTQSSGVAPLSAGG [r19_394_JUSTAS] | 0.392 ± 0.019 | 0.706 ± 0.031 | 0.616 ± 0.025
20 | SAGSPVVIKVSKVDSSGNWTLLEEIPIPPSEVSGVELVGDSLKILPPGSGGSYTFTIENSTVTVSIEESAGG [r19_408_JUSTAS] | 0.465 ± 0.038 | 1.27 ± 0.084 | 0.933 ± 0.06
21 | SAGSRVLTLVFEIPGRPEVVENLPEDVVLPDGARLYRDGERLLLVVEREVPSLPVLDADGRPVGPELLSAGG [r19_148_TrMRF] | 0.4 ± 0.027 | 1.11 ± 0.056 | 0.85 ± 0.039

Row | Sequence | folding stability dG unfold [1] [kcal/mol] | folding stability dG unfold [2] [kcal/mol] | folding stability dG unfold [3] [kcal/mol]
22 | SAGSSAVEVDIDEELKEKLKKLIDPDKPIEITRLKTTTNETIILITEKGSGKKYIFTRNKEGKIEIKKSAGG [r19_70_JUSTAS] | 2.07 ± 0.061 | 2.5 ± 0.065 | 2.38 ± 0.069
23 | SAGSSLNILLELETPEEAEKEAARIKEEIPKKGISVTVTIVSKEELEKLLKENVIELPNGSLKLVLFPSAGG [r19_187_JUSTAS] | 0.201 ± 0.11 | 0.138 ± 0.19 | 0.218 ± 0.25
24 | SAGSSMLDSLTVDTEVTLDPAKGTVLVKTTTTLPDGTVTRTVTTVTVEPLNPPPPPPPRFDPRTGEALESAG [r5_816_JUSTAS] | 0.79 ± 0.082 | 0.207 ± 0.15 | 0.549 ± 0.14
25 | SAGSSMSLPLPEEIEIEIPNPGLSLEEIKKIVADKLGLKIVSVEEEEGRLVFKAENGIPIRVKIEEPGKSAG [r5_350_JUSTAS] | 2.35 ± 0.13 | 2.376 ± 0.013 | 2.34 ± 0.072
26 | SAGSSMSVTIKVTIRSPTRTEEIEITVSPSESLEEAIKKVAEKLPPDYSITITFEGGETVTIPIPKELLSAG [r5_77_JUSTAS] | 1.93 ± 0.1 | 1.15 ± 0.024 | 1.58 ± 0.089
27 | SAGSSSMVLLKVTITFTDPNGTTTTLTYTFDDPSNPEKARAAVEALAAEIKAATGASWTITMTTVPVPGSAG [r14_146_JUSTAS] | 4.59 ± 0.16 | 5.32 ± 0.066 | 5.17 ± 0.12
28 | SAGSSTPGSEVVRVTSEVSEGESNRTVSYTTYVFEPGGPALRPLSTSTTTVPAAPGVPEGGTKTISLPGSAG [r5_861_JUSTAS] | -0.419 ± 0.064 | -0.755 ± 0.2 | -0.534 ± 0.11
29 | SAGSSTTLTFPVDTKIPDEKGNPLSSSTVTVTVNPSPGKVTATLTDPATGTVTTVEFGSLEKVEAFLSSSAG [r14_508_JUSTAS] | 1.29 ± 0.042 | -0.218 ± 0.18 | 0.809 ± 0.067
30 | SAGSSVTAPFSLPSDLVVDSVTYDPDAKTVTVTVTDPRGGRKAVGTFPVWDPNGNPVLSTADSYTFDNPSAG [r5_434_TrMRF] | -0.417 ± 0.03 | -0.0129 ± 0.058 | -0.128 ± 0.053
31 | SAGSTTRVVELPGNKRVEVEVSTVGDSLTFTITLRDEEGNPVKTLPVAVPDPSLPVEEAIAAAVAAFLASAG [r5_630_JUSTAS] | 3.15 ± 0.049 | 3.91 ± 0.029 | 3.68 ± 0.042
32 | SAGSYSVTADVTVHPDGTVDVTLTITTNGEDGTTETSTVLPLTLDLPPGTAVTVTVDPNNGTVTVTVEASAG [r5_179_JUSTAS] | 3.01 ± 0.14 | 4.14 ± 0.058 | 3.89 ± 0.079
33 | SAGTIAKEIAEKLGLPGLKVKDVKFEPDPDGPIKEIEITVEFPNGRYWKIDIRYDPGNIVIDIEPVPPSAGG [r19_392_TrROS] | 1.98 ± 0.056 | 2.29 ± 0.029 | 2.17 ± 0.1
34 | SAGTIKELLEKLPGFSVEVDPDDGTVWVMFRMPDHYVMIEIPIDKEDGNIKGIRIHRHDPNGEPKPIPLSAG [r5_367_TrROS] | 1.44 ± 0.038 | 1.19 ± 0.22 | 1.44 ± 0.12
35 | SAGTIREALDNPKNKRVVIMIMIPPEDFPPGDPERYRERAREMANGIMGWFRERGLDVKIEIEIMYMPWSAG [r5_408_TrROS] | 2.38 ± 0.044 | 2.77 ± 0.03 | 2.65 ± 0.079
36 | SAGTITADDITEIEMQWDPGNGYVQIEIEFPNGYTVNAWMPNDKIEIEVWYPNGKKVEIEFEIKPPGASAGG [r19_121_TrROS] | 1.72 ± 0.22 | 2.74 ± 0.18 | 2.39 ± 0.38
37 | SAGTLTLELEVEVDGVLVRVRVEVRPGEEVEVRVEVEVRELPPEPEVEEEEKVELSEEDLERLRRLAEESAG [r5_958_TrROS_Hall] | 2.46 ± 0.071 | 3.4 ± 0.086 | 3.05 ± 0.1
38 | SAGTVSSSFDPATGTLTITRTTSPDETVDLTLNVEVPETPATVAKVDSGGPVEGDEPVTITVELTDLKPSAG [r5_737_JUSTAS] | 0.222 ± 0.075 | -0.522 ± 0.42 | -0.152 ± 0.24
39 | SAGVISPTDPTTTTTTEVRESEDGTTTTVSTVTYPGTGSTMTVTTTTTHDPSTGTSTVTSTTTTDPSASAGG [r19_342_JUSTAS] | 1.57 ± 0.086 | 0.394 ± 0.029 | 1.08 ± 0.059
40 | SAGVLTIEVQMPADDAEEFAEEVADTIARRLGFPPGFKIKVKVDRFDPDNGYVRVEATIEFPLPPNQPPSAG [r5_537_TrROS] | 2.61 ± 0.12 | 2.19 ± 0.059 | 2.43 ± 0.099
41 | SAGVTLKLPFVLPGGLGVDEIEVRSLPGGRVEARLRLKGDPRYYVVARFYVLPGGRLVITDVRVRREDESAG [r14_705_TrMRF] | 3.75 ± 0.095 | 3.22 ± 0.031 | 3.54 ± 0.082
42 | SAGVVEELLKEFPDVEKVTSSSYPGPKVSQYVIYFPTPSGKKVTIKITVTQPRLPSNSTTSELSIELNDSAG [r5_398_JUSTAS] | 2.11 ± 0.12 | 2.25 ± 0.12 | 2.08 ± 0.38

From the supplement of paper PMC12764529
